From publication PMC10688287, “RNA binding protein AUF1/HNRNPD regulates nuclear export, stability and translation of SNCA transcripts” (Open Biology, 2023)

Molecular target: T1, CNOT1 (UniProt A5YKK6 1-2376)
T1 construct: CNOT1, scaffold subunit of the CCR4-NOT deadenylase complex; Endogenous human CNOT1 of the SK-N-SH cells is precipitated by the anti-CNOT1 antibody as well; source: SK-N-SH, transfected (CNOT1 plasmid), in lysate
Test: co-IP; anti-CNOT1 antibody or control IgG, protein A/G magnetic beads; lysates of SK-N-SH cells 48 h after co-transfection with CNOT1 and either empty or AUF1-expressing plasmid; PLB lysis buffer (10 mM HEPES pH 7.0, 100 mM KCl, 5 mM MgCl2, 0.5% NP-40); washes in NT2 buffer with 250 mM NaCl; Western blot
Conditions: partners not purified

T1 sequence (A5YKK6 whole entry): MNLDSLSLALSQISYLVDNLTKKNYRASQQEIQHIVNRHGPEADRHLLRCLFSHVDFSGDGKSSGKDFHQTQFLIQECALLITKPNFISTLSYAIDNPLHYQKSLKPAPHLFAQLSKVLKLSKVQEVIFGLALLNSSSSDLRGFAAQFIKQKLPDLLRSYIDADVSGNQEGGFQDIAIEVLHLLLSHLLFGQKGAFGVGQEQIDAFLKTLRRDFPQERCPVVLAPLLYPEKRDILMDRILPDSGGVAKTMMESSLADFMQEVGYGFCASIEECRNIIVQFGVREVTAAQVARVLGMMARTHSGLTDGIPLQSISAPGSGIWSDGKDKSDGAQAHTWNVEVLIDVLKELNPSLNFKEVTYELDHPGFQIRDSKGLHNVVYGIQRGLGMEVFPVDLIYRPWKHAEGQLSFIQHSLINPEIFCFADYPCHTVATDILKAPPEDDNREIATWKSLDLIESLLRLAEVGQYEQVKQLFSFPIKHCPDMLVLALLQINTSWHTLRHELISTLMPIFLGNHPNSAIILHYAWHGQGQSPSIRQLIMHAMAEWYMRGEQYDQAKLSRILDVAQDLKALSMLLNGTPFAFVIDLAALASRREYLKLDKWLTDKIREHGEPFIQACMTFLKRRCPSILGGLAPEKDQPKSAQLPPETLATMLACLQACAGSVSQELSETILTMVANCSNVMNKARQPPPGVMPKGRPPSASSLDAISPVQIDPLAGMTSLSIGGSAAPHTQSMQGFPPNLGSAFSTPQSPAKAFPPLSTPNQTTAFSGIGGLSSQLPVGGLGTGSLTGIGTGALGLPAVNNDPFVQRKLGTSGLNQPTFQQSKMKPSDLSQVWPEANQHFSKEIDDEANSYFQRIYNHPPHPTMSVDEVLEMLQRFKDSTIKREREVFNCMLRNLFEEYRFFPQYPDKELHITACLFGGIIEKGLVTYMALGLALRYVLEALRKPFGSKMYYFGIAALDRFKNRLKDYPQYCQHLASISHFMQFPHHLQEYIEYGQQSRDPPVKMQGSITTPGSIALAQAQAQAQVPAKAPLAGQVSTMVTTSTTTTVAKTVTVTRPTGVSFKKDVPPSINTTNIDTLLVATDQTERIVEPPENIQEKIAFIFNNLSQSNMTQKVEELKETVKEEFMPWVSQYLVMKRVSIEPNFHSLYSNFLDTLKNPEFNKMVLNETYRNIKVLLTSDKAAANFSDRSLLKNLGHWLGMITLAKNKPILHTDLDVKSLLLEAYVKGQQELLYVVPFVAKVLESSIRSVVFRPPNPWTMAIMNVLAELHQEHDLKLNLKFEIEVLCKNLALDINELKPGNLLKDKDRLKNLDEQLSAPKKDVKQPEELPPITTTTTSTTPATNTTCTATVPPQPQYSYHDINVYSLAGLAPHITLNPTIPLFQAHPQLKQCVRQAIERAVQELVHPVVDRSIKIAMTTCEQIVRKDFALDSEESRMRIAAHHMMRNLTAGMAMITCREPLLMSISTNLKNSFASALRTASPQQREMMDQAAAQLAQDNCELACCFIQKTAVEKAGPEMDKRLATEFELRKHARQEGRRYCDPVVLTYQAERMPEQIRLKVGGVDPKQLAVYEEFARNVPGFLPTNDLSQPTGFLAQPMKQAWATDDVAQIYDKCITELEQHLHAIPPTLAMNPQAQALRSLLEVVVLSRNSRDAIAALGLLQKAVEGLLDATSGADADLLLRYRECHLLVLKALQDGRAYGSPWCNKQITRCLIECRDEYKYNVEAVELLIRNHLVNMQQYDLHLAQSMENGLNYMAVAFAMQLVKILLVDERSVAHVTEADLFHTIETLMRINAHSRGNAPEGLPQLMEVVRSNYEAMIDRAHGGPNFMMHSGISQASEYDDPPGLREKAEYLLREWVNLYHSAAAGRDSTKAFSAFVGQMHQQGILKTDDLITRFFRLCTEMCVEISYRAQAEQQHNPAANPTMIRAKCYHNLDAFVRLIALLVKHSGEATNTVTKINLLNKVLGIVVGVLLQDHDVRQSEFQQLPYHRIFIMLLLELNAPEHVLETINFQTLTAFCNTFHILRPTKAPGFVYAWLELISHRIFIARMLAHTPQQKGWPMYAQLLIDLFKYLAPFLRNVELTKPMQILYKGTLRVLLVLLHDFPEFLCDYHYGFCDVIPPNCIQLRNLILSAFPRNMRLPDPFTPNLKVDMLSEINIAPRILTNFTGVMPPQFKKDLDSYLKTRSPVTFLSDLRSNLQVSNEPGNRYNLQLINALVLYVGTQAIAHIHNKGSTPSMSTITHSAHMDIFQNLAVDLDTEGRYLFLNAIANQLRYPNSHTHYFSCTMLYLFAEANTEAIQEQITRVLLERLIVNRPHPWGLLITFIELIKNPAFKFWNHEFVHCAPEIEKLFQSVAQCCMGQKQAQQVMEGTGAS

fold enrichment in the CNOT1 immunoprecipitate: 1.6 fold
B1: AUF1 (heterogeneous nuclear ribonucleoprotein D, HNRNPD), 42 kDa protein (natural protein, human, UniProt Q14103-2 1-336, looked up)
chain: MSEEQFGGDGAAAAATAAVGGSAGEQEGAMVAATQGAAAAAGSGAGTGGGTASGGTEGGSAESEGAKIDASKNEEDEGKMFIGGLSWDTTKKDLKDYFSKFGEVVDCTLKLDPITGRSRGFGFVLFKESESVDKVMDQKEHKLNGKVIDPKRAKAMKTKEPVKKIFVGGLSPDTPEEKIREYFGGFGEVESIELPMDNKTNKRRGFCFITFKEEEPVKKIMEKKYHNVGLSKCEIKVAMSKEQYQQQQQWGSRGGFAGRARGRGGGPSQNWNQGYSNYWNQGYGNYGYNSQGYGGYGGYDYTGYNNYYGYGDYSNQQSGYGKVSRRGGHQNSYKPY
notes: human AUF1/HNRNPD CDS encoding the 42 kDa protein (p42 isoform), amplified from SK-N-SH cDNA and cloned between KpnI and NotI of pENTR-GD; The co-IP was done in cells transfected with empty or AUF1-expressing plasmid; the anti-AUF1 blot also detects the endogenous AUF1 isoforms (p37, p40, p42, p45) of SK-N-SH cells; also called p42; source: SK-N-SH, transfected (AUF1-expressing plasmid), in lysate
